Measurements: paper PMC10021052, “Novel multivalent S100A8 inhibitory peptides attenuate tumor progression and metastasis by inhibiting the TLR4-dependent pathway” (Cancer Gene Therapy, 2023)
“Also recorded” adds a separate entry of the source.

Experiments:
[1] = target: human TLR4/MD-2 complex (human) (UniProt O00206)
PD-L1 in macrophages = system: PD-L1 in macrophages; design: method as in PMID 32198140; settings: ref [29]; cited from earlier work
SW480 cells = experiment: qPCR, S100A8-mediated IL-8 and VEGF mRNA induction in SW480 cells; assay type: cell-based, human; settings: Fig. 2E
Protocol: SW480 cells were treated with S100A8 in Dulbecco’s Modified Eagle Medium/HamF12 supplemented with 0.1% bovine serum albumin for cytokine induction. Total RNA was extracted using the RNeasy Mini Plus (Qiagen, Hilden, Germany). Complementary DNA was synthesized using the PrimeScript 1st Strand Synthesis kit (Takara Bio, Japan). Quantitative PCR (qPCR) analysis was performed using the PowerUp^TM SYBR^TM Green mixture (Thermo Fisher Scientific) and the StepOnePlus Real Time PCR System (Thermo Fisher Scientific). Gene expression levels were calculated from Ct values, and the relationship between the Ct value and the logarithm of the copy number of a target gene was confirmed to be on a linear line using the corresponding isolated DNA and its serial dilutions as a standard. Thus, the gene expression levels of IL-8 and VEGF were normalized against that of β-actin in each sample. The following primers were used; β-actin, 5′-[…]-3′ and 5′-[…]-3′; IL-8, 5′-[…]-3′ and 5′-[…]-3′; VEGF, 5′-[…]-3′ and 5′-[…]-3′.
Fig. 2 Identification of S100A8 binding sites to human TLR4/MD-2. […] TLR4/MD-2 recombinant proteins were immobilized to the ELISA plate. After blocking, a full length or deletion mutant of S100A8 was added to the plate. The more detailed methods are described in Materials and Methods. […] B A series of overlapping S100A8 synthetic peptides. The TLR4/MD-2 recombinant proteins were added to each well of peptide immobilized plates. The affinity to TLR4/MD-2 was determined. Data are shown as mean ± SD. C The competitive activity was determined using ELISA. Data are shown as mean ± SD. D The TLR4/MD-2 was mixed with S100A8 with/without the indicated peptides, and immunoprecipitated using an anti-TLR4 antibody. TLR4 or S100A8 was visualized. Similar results were obtained in three independent experiments. […] Total RNAs from SW480 cells with/without treatment of the peptide candidates were extracted and qPCR analysis was performed using relevant primer sets and SYBR green. Relative expression levels were compared. […] TEXT PRINTED IN THE PICTURE: (A) Full length: TLR4/MD-2 binding: + | (A) S100A8-ΔC: TLR4/MD-2 binding: − | (A) S100A8-N: TLR4/MD-2 binding: −
Fig. 4 Improvement of competitive inhibition activity by divalent peptide3A5. A The binding capacity was measured at the indicated concentration using an ELISA-based assay. Similar results were obtained in three independent experiments. B SW480 cells were pretreated with 2.5 µM of divalent peptide3A5, and then stimulated with human S100A8 recombinant protein. After 30 min, cell lysates were subjected to western blotting using the indicated antibody. The divalent peptide#3 or peptide3A5 reduced the expression of S100A8-mediated IL-8 (C) and VEGF (D) induction. Total RNAs from SW480 cells with/without treatment of the peptide candidates were extracted and qPCR analysis was performed using relevant primer sets and SYBR green. Relative expression levels were compared. Peptide #3 suppresses S100A8-mediated IL-8(E) and VEGF (F) secretion in SW480 cells.

MDSCs = experiment: In vivo S100A8 stimulation, MDSC recruitment to lungs; design: species or system C57BL/6J mice; settings: recombinant S100A8 i.v., 4 h; *P < 0.05 vs control
Protocol: Balb nu/nu or C57BL/6J mice were purchased from Clea Japan Inc. (Tokyo, Japan). Mice were used for experiments at 2–3 months of age. […] For in vivo S100A8 stimulation, C57BL/6J mice were intravenously injected with mammalian-derived S100A8. Four hours after the i.v. injection, mice were sacrificed, and minced mouse lungs were digested with collagenase/dispase/DNase solution. Collected cells were incubated with anti-CD11b-PE (BD Bioscience), anti-Ly6G-FITC (BD Bioscience), and anti-Ly6C-APC (BD Bioscience) antibodies, and analyzed by a flow cytometry (Cytomics FC500; Beckman Coulter, Brea, CA, USA). […] The mice were sacrificed after 16 h, and minced mouse lungs were digested with collagenase/dispase/DNase solution. The recruitment of MDSCs or PKH-26 labeled tumor cells in the lungs was determined by flow cytometry (CytoFlex; Beckman Coulter).

[2] = system: S100A8-mediated cell migration; settings: ref [8]; cited from earlier work
Excerpt: VEGF is another NFκB-mediated re ...

[3] = system: p38 and p65 (NF-κB) in SW480 cells; settings: ref [8]; cited from earlier work
Excerpt: TLR4/MD-2 dimerizes upon ligand binding. To attempt the inhibitory peptide fitted into dimerized forms, we generated a divalent peptide of peptide3A5 using Fmoc-Lys (Fmoc)-OH to form two branches in the peptide chain. […] We then examined the effect of divalent peptide3A5 on TLR4/MD-2 downstream signaling. […] Pretr ...

[4] = system: tumor cells and macrophages; settings: ref [8]; cited from earlier work
Excerpt: S100A8 belongs to the S100s family and is characterized by two calcium-binding EF-hand motifs: a carboxyl-terminal EF-hand (high affinity to calcium), and an N-terminal EF-hand (low affinity to calcium) that are connected by a central hinge. Like most S100 proteins, S100A8 can form a heterodimer with S100A9 or can exist as a homodimer or monomer. Vogl et al. originally reported that S100A8-mediated cytokine induction was mediated via TLR4 [5].

Sequence of human TLR4/MD-2 complex (human) (O00206 24-839, chain 1 of 2): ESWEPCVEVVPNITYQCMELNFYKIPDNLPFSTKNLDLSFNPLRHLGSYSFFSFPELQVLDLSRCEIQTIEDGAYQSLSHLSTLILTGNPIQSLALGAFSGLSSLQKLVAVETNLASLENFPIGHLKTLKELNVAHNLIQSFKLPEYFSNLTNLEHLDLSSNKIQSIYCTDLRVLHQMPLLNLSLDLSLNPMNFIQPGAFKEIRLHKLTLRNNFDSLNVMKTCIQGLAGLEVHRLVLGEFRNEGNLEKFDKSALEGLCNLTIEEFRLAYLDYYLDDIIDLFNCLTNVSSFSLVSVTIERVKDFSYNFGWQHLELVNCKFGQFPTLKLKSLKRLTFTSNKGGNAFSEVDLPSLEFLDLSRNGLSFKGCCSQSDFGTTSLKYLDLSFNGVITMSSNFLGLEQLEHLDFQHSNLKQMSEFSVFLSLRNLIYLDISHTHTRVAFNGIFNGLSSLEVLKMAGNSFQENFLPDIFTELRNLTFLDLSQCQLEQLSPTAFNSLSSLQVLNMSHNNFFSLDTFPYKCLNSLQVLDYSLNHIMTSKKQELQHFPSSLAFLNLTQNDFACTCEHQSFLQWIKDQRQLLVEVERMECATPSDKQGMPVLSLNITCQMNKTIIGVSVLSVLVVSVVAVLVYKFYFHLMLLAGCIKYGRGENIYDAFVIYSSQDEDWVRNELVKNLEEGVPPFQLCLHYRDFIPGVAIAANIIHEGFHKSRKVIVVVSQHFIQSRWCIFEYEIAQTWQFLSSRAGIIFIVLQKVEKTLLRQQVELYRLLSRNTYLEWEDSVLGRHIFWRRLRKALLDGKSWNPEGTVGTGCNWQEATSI
Sequence of human TLR4/MD-2 complex (human) (Q9Y6Y9 19-160, chain 2 of 2, further chain): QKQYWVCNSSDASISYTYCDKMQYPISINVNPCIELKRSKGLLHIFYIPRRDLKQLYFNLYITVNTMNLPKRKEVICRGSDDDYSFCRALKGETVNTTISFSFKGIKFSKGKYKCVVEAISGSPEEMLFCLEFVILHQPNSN

S100A8-induced phosphorylation of p38 in SW480 cells pretreated with 2.5 µM divalent peptide3A5: fold inhibition [1]: 1.3 fold | S100A8-induced phosphorylation of p65 (NF-κB) in SW480 cells pretreated with 2.5 µM divalent peptide3A5: fold inhibition [1]: 1.7 fold
B1: human S100A8 recombinant protein, full length (natural protein)
chain: MLTELEKALNSIIDVYHKYSLIKGNFHAVYRDDLKKLLETECPQYIRKKGADVWFKELDINTDGAVNFQEFLILVIKMGVAAHKKSHEESHKE
PD-L1 expression in macrophages (PD-L1 in macrophages): upregulated PD-L1 in macrophages via a TLR4-dependent pathway | IL-8 production induced by S100A8 (SW480 cells): induced IL-8 production | recruitment of MDSCs from bone marrow to lungs (MDSCs): increased the recruitment of MDSCs from the bone marrow to the lungs; also recorded: induces pulmonary recruitment of MDSCs from bone marrow | cell migration induced by S100A8 [2]: induces cell migration in a TLR4-dependent manner | phosphorylation of p38 MAP kinase / NF-κB activation by S100A8 [3]: induced phosphorylation of p38 MAP kinase, followed by activation of NF-κB signaling | induction of inflammatory cytokines/chemokines by S100A8 [4]: induced inflammatory cytokines/chemokines in a TLR4-dependent manner
